Laboratory results taken from publication PMC4137731.

Assays:
[1] = target: KpSSBnStSSBc (K. pneumoniae subsp. pneumoniae MGH 78578 | S. enterica serovar Typhimurium LT2) (UniProt A6TGW7); assay: SEC; purified protein (2 mg/mL) on Superdex 200 HR 10/30 in Buffer D (20 mM potassium phosphate, 1 mM EDTA, 100 mM NaCl, pH 7.0), 0.5 mL/min; calibrated with proteins of known molecular weight; oligomeric state from the native mass against the monomer mass
[2] = target: KpSSBnPaSSBc (K. pneumoniae subsp. pneumoniae MGH 78578 | P. aeruginosa PAO1) (UniProt A6TGW7); assay: as above

| Substance | stoichiometry N [1] | stoichiometry N [2] |
| --- | --- | --- |
| KpSSBnStSSBc (from UniProt A6TGW7 1-91; P0A2F6 92-176) | 4 |  |
| KpSSBnPaSSBc (from UniProt A6TGW7 1-91; P40947 91-165) |  | 4 |
